# Assay results from patent US20100303724A1 (UNIVERSITE PARIS DIDEROT PARIS 7, published 2010).
# Bridge positions count the residues as written; N and C are the ends. * marks the point of attachment. Biotin = O=C1N[C@H]2[C@H](CS[C@H]2CCCCC(=O)*)N1
# B1: biotin-collagelin (peptide)
# peptide: Biotin-SGSGCGPRVMHGLHLGDDEGPC-NH2
# modifications: disulfide 5-22
# SMILES: CSCC[C@@H]1NC(=O)[C@H](C(C)C)NC(=O)[C@H](CCCNC(=N)N)NC(=O)[C@@H]2CCCN2C(=O)CNC(=O)[C@@H](NC(=O)CNC(=O)[C@H](CO)NC(=O)CNC(=O)[C@H](CO)NC(=O)CCCC[C@@H]2SC[C@@H]3NC(=O)N[C@@H]32)CSSC[C@@H](C(N)=O)NC(=O)[C@@H]2CCCN2C(=O)CNC(=O)[C@H](CCC(=O)O)NC(=O)[C@H](CC(=O)O)NC(=O)[C@H](CC(=O)O)NC(=O)CNC(=O)[C@H](CC(C)C)NC(=O)[C@H](Cc2c[nH]cn2)NC(=O)[C@H](CC(C)C)NC(=O)CNC(=O)[C@H](Cc2c[nH]cn2)NC1=O
# notes: also called biotinylated collagelin
# How the values were obtained:
# [1] = target: T1, soluble recombinant GPVI-Fc fusion protein (human, UniProt Q9HCN6 21-269, limits assumed); assay: SPR; biotin-collagelin on a streptavidin sensorchip
# T1 construct: also called recombinant soluble GPVI; recombinant soluble human GPVI-Fc; not shown: Fc part
# T1 sequence (looked up): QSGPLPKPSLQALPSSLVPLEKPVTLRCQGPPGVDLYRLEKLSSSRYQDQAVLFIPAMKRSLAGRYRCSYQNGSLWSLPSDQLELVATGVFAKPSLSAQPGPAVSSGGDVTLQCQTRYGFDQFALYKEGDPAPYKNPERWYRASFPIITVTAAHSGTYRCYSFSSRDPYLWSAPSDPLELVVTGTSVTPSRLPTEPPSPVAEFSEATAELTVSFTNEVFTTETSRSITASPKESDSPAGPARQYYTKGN
# [2] = target: T2, type I equine fibrillar collagen (Collagen Horm, Nycomed) (equine); assay: SPR; biotin-collagelin injected on collagen amine-coupled to a CM5 sensorchip
# T2 construct: Bought fibrillar preparation; also called type I collagen; fibrillar type I collagen
# Description: FIG. 2: Interaction of the collagelin with collagen: A Collagen was injected on biotin-collagelin immobilized on a streptavidin coated sensorchip. ˜10 RU collagen were bound onto the collagelin coated surface (dark). The fit is also indicated (grey). Non-specific background signal from a control flow cell coated with an irrelevant peptide was deduced. B Binding of collagelin to immobilized collagen. Increasing quantities of biotin-collagelin (250, 500 μg.mL−1) were injected on a collagen immobilized on a CM5 sensorchip. Sensorgrams and interaction fits obtained with the peptide are shown in black and grey respectively. Non-specific background measured using an irrelevant peptide was deduced.
# In other experiments, fibrillar collagen was manually immobilized on a CM5-sensorchip according to the manufacturer's instructions (Biacore, Uppsala, Sweden). The biotinylated peptide (125; 250, 500 and 1000 μg/mL) was injected on immobilized collagen at 25° C. with a flow rate of 20 μL.min−1. In competition experiments, the peptide was pre-incubated with recombinant soluble human GPVI-Fc or the 9O12.2 IgGs before injection onto the surface. The surface plasmon resonance intensity was monitored and data analyzed using BioEval2.0 (Biacore).
# Using the streptavidin-coated sensorship onto which biotin-collagelin was immobilized we observed binding of type I collagen to the surface (FIG. 2A). […]
# [3] = target: T3, bovine fibrinogen (Sigma) (bovine, UniProt P02672 20-615; P02676 1-468; P12799 25-444, limits assumed); assay: Solid phase assay: biotin-collagelin on coated fibrinogen, detected with peroxidase-coupled extravidin [panel B]
# T3 construct: Bought protein
# T3 sequence (looked up) 1: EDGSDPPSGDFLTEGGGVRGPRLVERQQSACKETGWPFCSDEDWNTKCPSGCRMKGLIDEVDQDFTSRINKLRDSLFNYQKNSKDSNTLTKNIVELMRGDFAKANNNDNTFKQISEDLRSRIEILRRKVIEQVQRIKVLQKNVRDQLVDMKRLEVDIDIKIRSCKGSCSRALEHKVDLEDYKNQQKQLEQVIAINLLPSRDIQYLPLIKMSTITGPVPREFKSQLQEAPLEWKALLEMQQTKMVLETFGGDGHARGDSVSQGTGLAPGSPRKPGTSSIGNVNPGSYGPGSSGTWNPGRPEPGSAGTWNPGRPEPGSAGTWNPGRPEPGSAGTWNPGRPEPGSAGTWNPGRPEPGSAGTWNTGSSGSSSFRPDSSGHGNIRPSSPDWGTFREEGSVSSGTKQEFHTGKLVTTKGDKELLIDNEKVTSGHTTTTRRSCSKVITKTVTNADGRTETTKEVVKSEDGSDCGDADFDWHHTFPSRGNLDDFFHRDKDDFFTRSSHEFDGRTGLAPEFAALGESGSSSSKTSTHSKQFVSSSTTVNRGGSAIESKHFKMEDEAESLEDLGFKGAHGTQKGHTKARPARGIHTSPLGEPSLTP
# T3 sequence (looked up) 2: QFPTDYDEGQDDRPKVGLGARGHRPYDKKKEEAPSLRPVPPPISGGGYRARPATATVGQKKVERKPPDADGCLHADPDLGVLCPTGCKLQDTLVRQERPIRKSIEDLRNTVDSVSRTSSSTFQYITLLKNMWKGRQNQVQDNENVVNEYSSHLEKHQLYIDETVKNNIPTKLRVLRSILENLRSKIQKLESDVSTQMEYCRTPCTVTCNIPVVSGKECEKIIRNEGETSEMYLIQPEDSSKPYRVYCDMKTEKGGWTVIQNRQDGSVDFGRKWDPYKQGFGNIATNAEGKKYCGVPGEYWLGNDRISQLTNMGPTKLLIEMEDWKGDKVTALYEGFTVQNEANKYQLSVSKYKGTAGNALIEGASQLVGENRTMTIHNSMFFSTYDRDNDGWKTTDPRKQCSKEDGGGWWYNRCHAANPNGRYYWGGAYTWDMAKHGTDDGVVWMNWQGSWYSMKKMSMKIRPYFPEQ
# T3 sequence (looked up) 3: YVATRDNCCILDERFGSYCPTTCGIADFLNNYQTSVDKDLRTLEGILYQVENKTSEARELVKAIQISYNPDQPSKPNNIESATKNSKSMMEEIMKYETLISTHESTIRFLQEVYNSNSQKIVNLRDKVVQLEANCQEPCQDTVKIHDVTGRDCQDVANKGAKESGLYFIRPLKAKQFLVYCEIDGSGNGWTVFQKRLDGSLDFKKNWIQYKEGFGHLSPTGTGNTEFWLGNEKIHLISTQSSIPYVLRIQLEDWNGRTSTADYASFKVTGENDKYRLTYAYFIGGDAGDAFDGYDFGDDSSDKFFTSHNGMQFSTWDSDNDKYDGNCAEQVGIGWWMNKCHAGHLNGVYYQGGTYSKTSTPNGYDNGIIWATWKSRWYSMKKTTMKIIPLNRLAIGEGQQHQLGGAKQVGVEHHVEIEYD
# Description: (§1) FIG. 3: Peptide Interaction with collagen and with different macromolecules: A Binding of collagelin to immobilized collagen in microtitration plates. biotin-collagelin or control peptide were incubated with immobilized fibrillar type I collagen and bound peptide was detected using peroxydase-coupled extravidine. In competition experiments collagelin was mixed with recombinant soluble GPVI (50 and 20 μg.mL−1), 9O12 IgGs (50 and 20 μg.mL−1) or 3J24.2 IgGs (50 μg.mL−1) prior to addition to collagen-coated wells. B: Binding of biotin-collagelin or control peptide (50 μg.mL−1) to immobilized fibrinogen, fibronectin, vitronectin and laminin. Coating of microtitration wells with the different proteins was performed as with collagen. Bound peptides were detected using peroxidase coupled extravidine.
# (§2) Proteins [type I equine fibrillar collagen (Horm), bovine fibrinogen (Sigma), human fibronectin (Sigma), rat vitronectin (Sigma), murine laminin (Gibco), and bovine serum albumin (BSA Sigma)] were coated (1 μg/well) on microtitration plates (Immulon 2 Dynex vWR) for 24 hours at 4° C. After saturation of free sites with BSA, biotinylated FLIGPVI peptide (50 μg/ml) was added to the wells for 2 hours. The peptide bound to the wells was then detected using extravidin-HRP and orthophenyldiamine as substrate.
# [4] = target: T4, human fibronectin (Sigma) (human, UniProt P02751-8 32-2296, limits assumed); assay: Solid phase assay: biotin-collagelin on coated fibronectin, detected with peroxidase-coupled extravidin [panel B]
# T4 construct: Bought protein
# T4 sequence (P02751 other isoform, or with tags, fused parts or gaps limits assumed): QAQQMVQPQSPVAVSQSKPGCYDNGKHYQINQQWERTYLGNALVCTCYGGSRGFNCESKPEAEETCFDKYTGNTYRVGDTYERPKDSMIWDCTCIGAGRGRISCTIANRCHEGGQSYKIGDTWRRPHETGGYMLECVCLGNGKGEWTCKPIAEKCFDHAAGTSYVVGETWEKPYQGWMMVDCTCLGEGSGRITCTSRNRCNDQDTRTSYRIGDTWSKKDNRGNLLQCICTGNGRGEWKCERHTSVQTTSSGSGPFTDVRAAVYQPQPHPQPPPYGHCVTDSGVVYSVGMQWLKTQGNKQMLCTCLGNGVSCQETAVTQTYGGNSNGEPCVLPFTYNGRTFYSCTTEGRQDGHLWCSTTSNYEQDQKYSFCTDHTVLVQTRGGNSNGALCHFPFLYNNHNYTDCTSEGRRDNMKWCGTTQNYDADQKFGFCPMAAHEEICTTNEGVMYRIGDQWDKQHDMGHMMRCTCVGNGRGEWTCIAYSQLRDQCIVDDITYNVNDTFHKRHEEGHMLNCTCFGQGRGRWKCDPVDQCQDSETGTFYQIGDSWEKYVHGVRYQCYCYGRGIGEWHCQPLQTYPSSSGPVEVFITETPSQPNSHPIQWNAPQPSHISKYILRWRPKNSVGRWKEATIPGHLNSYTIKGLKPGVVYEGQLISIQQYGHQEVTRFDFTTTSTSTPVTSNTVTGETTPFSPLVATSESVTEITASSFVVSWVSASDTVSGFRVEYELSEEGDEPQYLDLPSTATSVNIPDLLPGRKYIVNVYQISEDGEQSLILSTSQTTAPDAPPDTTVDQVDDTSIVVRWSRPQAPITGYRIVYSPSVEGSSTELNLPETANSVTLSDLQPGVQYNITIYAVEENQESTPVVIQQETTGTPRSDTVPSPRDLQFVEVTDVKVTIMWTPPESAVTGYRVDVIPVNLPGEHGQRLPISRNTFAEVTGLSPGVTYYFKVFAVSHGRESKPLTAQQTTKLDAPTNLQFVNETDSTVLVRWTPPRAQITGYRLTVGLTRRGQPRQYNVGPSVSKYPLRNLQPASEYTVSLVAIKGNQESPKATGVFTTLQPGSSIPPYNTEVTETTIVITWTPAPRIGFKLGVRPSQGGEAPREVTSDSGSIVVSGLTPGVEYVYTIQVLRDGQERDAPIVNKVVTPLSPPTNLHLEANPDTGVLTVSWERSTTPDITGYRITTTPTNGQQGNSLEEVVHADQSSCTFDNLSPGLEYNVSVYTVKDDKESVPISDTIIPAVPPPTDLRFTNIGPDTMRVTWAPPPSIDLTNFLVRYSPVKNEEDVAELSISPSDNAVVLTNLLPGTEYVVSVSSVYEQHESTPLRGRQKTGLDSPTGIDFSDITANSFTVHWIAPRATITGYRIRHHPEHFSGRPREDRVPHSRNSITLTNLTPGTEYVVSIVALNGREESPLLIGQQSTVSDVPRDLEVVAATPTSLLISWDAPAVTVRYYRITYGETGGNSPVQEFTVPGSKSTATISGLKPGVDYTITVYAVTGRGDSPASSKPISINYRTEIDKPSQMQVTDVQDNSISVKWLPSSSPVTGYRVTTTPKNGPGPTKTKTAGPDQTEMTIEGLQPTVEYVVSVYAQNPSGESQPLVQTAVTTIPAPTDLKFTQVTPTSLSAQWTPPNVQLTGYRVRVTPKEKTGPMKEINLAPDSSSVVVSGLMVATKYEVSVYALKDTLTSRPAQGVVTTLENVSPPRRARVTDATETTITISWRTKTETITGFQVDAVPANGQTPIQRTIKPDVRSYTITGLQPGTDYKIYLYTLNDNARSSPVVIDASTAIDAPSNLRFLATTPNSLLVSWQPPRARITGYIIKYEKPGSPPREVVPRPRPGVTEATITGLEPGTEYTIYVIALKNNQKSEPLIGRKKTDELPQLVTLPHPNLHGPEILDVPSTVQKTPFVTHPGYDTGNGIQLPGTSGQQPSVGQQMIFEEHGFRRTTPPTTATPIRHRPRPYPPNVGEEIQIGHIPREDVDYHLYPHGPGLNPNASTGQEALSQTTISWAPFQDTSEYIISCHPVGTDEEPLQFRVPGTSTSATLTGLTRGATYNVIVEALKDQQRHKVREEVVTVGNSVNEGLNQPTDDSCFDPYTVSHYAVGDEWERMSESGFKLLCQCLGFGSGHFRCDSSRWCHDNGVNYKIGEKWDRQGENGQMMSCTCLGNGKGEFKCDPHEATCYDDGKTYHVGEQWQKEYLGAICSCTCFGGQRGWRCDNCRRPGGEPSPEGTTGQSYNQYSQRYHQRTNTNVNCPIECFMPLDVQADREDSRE
# Description: as §1, §2
binder,measurement,setting,value
B1,binding result,[1],no binding (tested: 25 µg/ml)
same,Kd,[2],100 nM
same,binding result,[3],no binding (tested: 50 µg/mL (legend))
same,binding result,[4],no binding (tested: 50 µg/mL (legend))
